From patent US11278600B2, “Human alpha-galactosidase variants” (Codexis, Inc., priority 2014, dated 2022)
Where a chain is given by its changes, count along the chain named.

B1: 168 (protein)
chain: LDNGLARTPTMGWLHWERFMCNLDCQEEPDSCISEKLFMEMAELMVSEGWKDAGYEYLCIDDCWMAPQRDSEGRLQADPQRFPHGIRQLANYVHSKGLKLGIYADVGNKTCAGFPGSFGYYDIDAQTFADWGVDLLKFDGCYCDSLENLADGYKHMSLALNRTGRSIVYSCEWPLYMWPFQKPNYTEIRQYCNHWRNFADIDDSWKSIKSILDWTSFNQERIVDVAGPGGWNDPDMLVIGNFGLSWNQQVTQMALWAIMAAPLFMSNDLRHISPQAKALLQDKDVIAINQDPLGKQGYQLRQGDNFEVWERPLSGLAWAVAMINRQEIGGPRSYTIAVASLGKGVACNPACFITQLLPVKRKLGFYEWTSRLRMHINPTGTVLLQLENTMQMSKDLLL
modifications: Synthetic Polypeptide sequence of Variant No. 168 of mature Human GLA
B2: 180 (protein)
chain: B1 chain with T369D, M374S
modifications: Synthetic Polypeptide sequence of Variant No. 180 of mature Human GLA
B3: 179 (protein)
chain: B1 chain with S95Q, M374S
modifications: Synthetic Polypeptide sequence of Variant No. 179 of mature Human GLA
B4: 181 (protein)
chain: B1 chain with T369S, M374S
modifications: Synthetic Polypeptide sequence of Variant No. 181 of mature Human GLA
B5: 174 (protein)
chain: B1 chain with S47I, M374S
modifications: Synthetic Polypeptide sequence of Variant No. 174 of mature Human GLA
B6: 178 (protein)
chain: B1 chain with S95E, M374S
modifications: Synthetic Polypeptide sequence of Variant No. 178 of mature Human GLA
B7: 182 (protein)
chain: B1 chain with M374S, T389S
modifications: Synthetic Polypeptide sequence of Variant No. 182 of mature Human GLA
B8: 173 (protein)
chain: B1 chain with M374S, S393P
modifications: Synthetic Polypeptide sequence of Variant No. 173 of mature Human GLA
B9: 183 (protein)
chain: B1 chain with V133I, M374S
modifications: Synthetic Polypeptide sequence of Variant No. 183 of mature Human GLA
B10: 171 (protein)
chain: B1 chain with M374S, S393G
modifications: Synthetic Polypeptide sequence of Variant No. 171 of mature Human GLA
B11: 169 (protein)
chain: B1 chain with M374T
modifications: Synthetic Polypeptide sequence of Variant No. 169 of mature Human GLA
B12: 170 (protein)
chain: B1 chain with M374S, S393E
modifications: Synthetic Polypeptide sequence of Variant No. 170 of mature Human GLA
B13: 175 (protein)
chain: B1 chain with S47R, M374S
modifications: Synthetic Polypeptide sequence of Variant No. 175 of mature Human GLA
B14: 177 (protein)
chain: B1 chain with S95D, M374S
modifications: Synthetic Polypeptide sequence of Variant No. 177 of mature Human GLA
B15: 176 (protein)
chain: B1 chain with S47T, M374S
modifications: Synthetic Polypeptide sequence of Variant No. 176 of mature Human GLA
B16: 172 (protein)
chain: B1 chain with M374S, S393H
modifications: Synthetic Polypeptide sequence of Variant No. 172 of mature Human GLA

Assay: HTP-analysis of supernatants pretreated with acid (MUGal hydrolysis)
Format: biochemical
Conditions: challenge at pH 4.2; activity of the variant/activity of WT GLA (SEQ ID NO: 5); yeast supernatant
Outline: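 Yeast INVSc1 supernatant, GLA variants; acid challenge: McIlvaine pH 3.3-4.3, 37° C., 1-3 h. Assay: MUGal in McIlvaine pH 4.8 plus citrate pH 4.3, 37° C., 30-180 min, Na2CO3 stop, Ex 355/Em 448 nm.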

| Molecule | Relative Activity of GLA Variants After Challenge at pH 4.2 |
| --- | --- |
| B1 | ++ (++ = >1.5 to 2.5 relative activity over WT GLA (SEQ ID NO: 5)) |
| B2 | ++ (++ = >1.5 to 2.5 relative activity over WT GLA (SEQ ID NO: 5)) |
| B3 | + (+ = 0.5 to 1.5 relative activity over WT GLA (SEQ ID NO: 5)) |
| B4 | + (+ = 0.5 to 1.5 relative activity over WT GLA (SEQ ID NO: 5)) |
| B5 | + (+ = 0.5 to 1.5 relative activity over WT GLA (SEQ ID NO: 5)) |
| B6 | +++ (+++ = >2.5 relative activity over WT GLA (SEQ ID NO: 5)) |
| B7 | + (+ = 0.5 to 1.5 relative activity over WT GLA (SEQ ID NO: 5)) |
| B8 | ++ (++ = >1.5 to 2.5 relative activity over WT GLA (SEQ ID NO: 5)) |
| B9 | + (+ = 0.5 to 1.5 relative activity over WT GLA (SEQ ID NO: 5)) |
| B10 | ++ (++ = >1.5 to 2.5 relative activity over WT GLA (SEQ ID NO: 5)) |
| B11 | ++ (++ = >1.5 to 2.5 relative activity over WT GLA (SEQ ID NO: 5)) |
| B12 | ++ (++ = >1.5 to 2.5 relative activity over WT GLA (SEQ ID NO: 5)) |
| B13 | ++ (++ = >1.5 to 2.5 relative activity over WT GLA (SEQ ID NO: 5)) |
| B14 | ++ (++ = >1.5 to 2.5 relative activity over WT GLA (SEQ ID NO: 5)) |
| B15 | + (+ = 0.5 to 1.5 relative activity over WT GLA (SEQ ID NO: 5)) |
| B16 | + (+ = 0.5 to 1.5 relative activity over WT GLA (SEQ ID NO: 5)) |

Assay: HTP-analysis of supernatants pretreated with base (MUGal hydrolysis)
Format: biochemical
Conditions: challenge at pH 7.1; activity of the variant/activity of WT GLA (SEQ ID NO: 5); yeast supernatant
Outline: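 Supernatants from INVSc1 yeast expressing GLA variants (SD-Ura, 66-84 h, 30° C) were mixed with McIlvaine buffer pH 7.0-8.2 or 200 mM sodium bicarbonate pH 9.1-9.7 and held 1-18 h at 37° C. Residual activity was then measured on MUGal at pH 4.8/4.3, 37° C, 30-180 min, by fluorescence (Ex 355/Em 448 nm).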

| Molecule | Relative Activity of GLA Variants After Challenge at pH 7.1 |
| --- | --- |
| B1 | ++ (++ = >1.5 to 2.5 relative activity over WT GLA (SEQ ID NO: 5)) |
| B2 | +++ (+++ = >2.5 relative activity over WT GLA (SEQ ID NO: 5)) |
| B3 | + (+ = 0.5 to 1.5 relative activity over WT GLA (SEQ ID NO: 5)) |
| B4 | + (+ = 0.5 to 1.5 relative activity over WT GLA (SEQ ID NO: 5)) |
| B5 | + (+ = 0.5 to 1.5 relative activity over WT GLA (SEQ ID NO: 5)) |
| B6 | ++ (++ = >1.5 to 2.5 relative activity over WT GLA (SEQ ID NO: 5)) |
| B7 | + (+ = 0.5 to 1.5 relative activity over WT GLA (SEQ ID NO: 5)) |
| B8 | ++ (++ = >1.5 to 2.5 relative activity over WT GLA (SEQ ID NO: 5)) |
| B9 | + (+ = 0.5 to 1.5 relative activity over WT GLA (SEQ ID NO: 5)) |
| B10 | ++ (++ = >1.5 to 2.5 relative activity over WT GLA (SEQ ID NO: 5)) |
| B11 | ++ (++ = >1.5 to 2.5 relative activity over WT GLA (SEQ ID NO: 5)) |
| B12 | ++ (++ = >1.5 to 2.5 relative activity over WT GLA (SEQ ID NO: 5)) |
| B13 | + (+ = 0.5 to 1.5 relative activity over WT GLA (SEQ ID NO: 5)) |
| B14 | + (+ = 0.5 to 1.5 relative activity over WT GLA (SEQ ID NO: 5)) |
| B15 | + (+ = 0.5 to 1.5 relative activity over WT GLA (SEQ ID NO: 5)) |
| B16 | + (+ = 0.5 to 1.5 relative activity over WT GLA (SEQ ID NO: 5)) |

Assay: HTP-analysis of yeast culture supernatants, no challenge (MUGal hydrolysis)
Format: biochemical
Conditions: activity of the variant/activity of WT GLA (SEQ ID NO: 5), yeast supernatant
Outline: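 Activity read as 4-methylumbelliferyl α-D-galactopyranoside hydrolysis: fluorescence (355/448 nm) after sodium carbonate stop, following 30-180 min at 37° C with 2 mM MUGal stock at pH 4.6–4.8. Enzyme source is unchallenged culture supernatant of INVSc1 yeast expressing GLA variants, grown 66-84 h at 30° C.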

| Molecule | Relative Activity of GLA Variants After No Challenge (NC) |
| --- | --- |
| B1 | ++ (++ = >1.5 to 2.5 relative activity over WT GLA (SEQ ID NO: 5)) |
| B2 | ++ (++ = >1.5 to 2.5 relative activity over WT GLA (SEQ ID NO: 5)) |
| B3 | + (+ = 0.5 to 1.5 relative activity over WT GLA (SEQ ID NO: 5)) |
| B4 | + (+ = 0.5 to 1.5 relative activity over WT GLA (SEQ ID NO: 5)) |
| B5 | + (+ = 0.5 to 1.5 relative activity over WT GLA (SEQ ID NO: 5)) |
| B6 | ++ (++ = >1.5 to 2.5 relative activity over WT GLA (SEQ ID NO: 5)) |
| B7 | ++ (++ = >1.5 to 2.5 relative activity over WT GLA (SEQ ID NO: 5)) |
| B8 | ++ (++ = >1.5 to 2.5 relative activity over WT GLA (SEQ ID NO: 5)) |
| B9 | + (+ = 0.5 to 1.5 relative activity over WT GLA (SEQ ID NO: 5)) |
| B10 | ++ (++ = >1.5 to 2.5 relative activity over WT GLA (SEQ ID NO: 5)) |
| B11 | ++ (++ = >1.5 to 2.5 relative activity over WT GLA (SEQ ID NO: 5)) |
| B12 | ++ (++ = >1.5 to 2.5 relative activity over WT GLA (SEQ ID NO: 5)) |
| B13 | + (+ = 0.5 to 1.5 relative activity over WT GLA (SEQ ID NO: 5)) |
| B14 | + (+ = 0.5 to 1.5 relative activity over WT GLA (SEQ ID NO: 5)) |
| B15 | + (+ = 0.5 to 1.5 relative activity over WT GLA (SEQ ID NO: 5)) |
| B16 | + (+ = 0.5 to 1.5 relative activity over WT GLA (SEQ ID NO: 5)) |
